Assay results: the FLAb antibody collection (doi:10.7554/elife.23156)

B1: scFv; the commonest letter at each place (parent)
chain 1: EVKLDETGGGLVQPGRPMKLSCVASGFTFSDYWMNWVRQSPEKGLEWVAQIRNKPYNYETYYSDSVKGRFTISRDDSKSSVYLQMNNLRVEDMGIYYCTGSYYGMDYWGQGTSVTVS
chain 2: DVVMTQTPLSLPVSLGDQASISCRSSQSLVHSNGNTYLRWYLQKPGQSPKVLIYKVSNRFSGVPDRFSGSGSGTDFTLKISRVEAEDLGVYFCSQSTHVPWTFGGGTKLEIK

How the values were obtained:
[1] = variants of: B1; test: Kd (Tite-Seq); settings: with fluorescein; format: scFv 4-4-20, heavy + light
[2] = variants of: B1; test: yeast surface expression (ratio to wild type); higher = more expressed; settings: format: scFv 4-4-20, heavy + light

| Variant | Kd [1] | yeast surface expression [2] |
| --- | --- | --- |
| chain 1 W33M M34H N35K | ≥ 10 µM | 0.305 |
| chain 1 F29D M34I | ≥ 10 µM | 0.946 |
| chain 1 S101I Y102V | ≥ 10 µM | 0.488 |
| chain 1 D31Q N35L | ≥ 10 µM | 0.418 |
| chain 1 T28W N35A | ≥ 10 µM | 0.862 |
| chain 1 F29N D31C M34N | ≥ 10 µM | 0.701 |
| chain 1 W33E N35R | ≥ 10 µM | 0.588 |
| chain 1 S30R D31N W36A | ≥ 10 µM | 0.32 |
| chain 1 T28S Y32F W36H | ≥ 10 µM | 0.533 |
| chain 1 S101M W108G | ≥ 10 µM | 0.228 |
| chain 1 Y32H N35E | ≥ 10 µM | 0.518 |
| chain 1 Y32D N35Y | ≥ 10 µM | 0.498 |
| chain 1 G100C G104I | ≥ 10 µM | 0.267 |
| chain 1 G104V Y107I | ≥ 10 µM | 0.443 |
| chain 1 Y103T D106R | ≥ 10 µM | 0.311 |
| chain 1 M105P | ≥ 10 µM | 0.648 |
| chain 1 G104N Y107K | ≥ 10 µM | 0.64 |
| chain 1 D31S W36P | ≥ 10 µM | 3.88 |
| chain 1 G104Y | ≥ 10 µM | 0.464 |
| chain 1 G104V | ≥ 10 µM | 0.536 |
| chain 1 G104C | ≥ 10 µM | 0.578 |
| chain 1 G104T | ≥ 10 µM | 0.599 |
| chain 1 F29S W36Q | ≥ 10 µM | 0.549 |
| chain 1 M105V G109Y | ≥ 10 µM | 0.227 |
| chain 1 D106Y | ≥ 10 µM | 0.51 |
| chain 1 D106R | ≥ 10 µM | 0.451 |

| Variant | Kd [1] | yeast surface expression [2] |
| --- | --- | --- |
| chain 1 D106V | ≥ 10 µM | 0.734 |
| chain 1 D106R G109H | ≥ 10 µM | 0.486 |
| chain 1 D106Q Y107I | ≥ 10 µM | 0.712 |
| chain 1 Y102G Y107F W108K | ≥ 10 µM | 0.71 |
| chain 1 D106I W108Q | ≥ 10 µM | 0.395 |
| chain 1 D31C W33G | ≥ 10 µM | 0.385 |
| chain 1 D31C W33C | ≥ 10 µM | 0.579 |
| chain 1 D31C W33P | ≥ 10 µM | 0.671 |
| chain 1 Y102H G104F W108Y | ≥ 10 µM | 0.283 |
| chain 1 Y32H V37T | ≥ 10 µM | 0.874 |
| chain 1 G100K D106S | ≥ 10 µM | 0.303 |
| chain 1 Y102S D106R | ≥ 10 µM | 0.499 |
| chain 1 Y107N G109P | ≥ 10 µM | 0.28 |
| chain 1 S30G N35P W36F | ≥ 10 µM | 0.718 |
| chain 1 N35F W36Q | ≥ 10 µM | 0.38 |
| chain 1 T28K W33D | ≥ 10 µM | 0.981 |
| chain 1 G104L M105L | ≥ 10 µM | 0.303 |
| chain 1 T28F N35C | ≥ 10 µM | 0.644 |
| chain 1 S101W G104W | ≥ 10 µM | 0.254 |
| chain 1 G100F S101T G104Y | ≥ 10 µM | 0.437 |
| chain 1 Y102N G104I | ≥ 10 µM | 0.859 |
| chain 1 S101Y Y107P | ≥ 10 µM | 0.489 |
| chain 1 G100P M105S G109M | ≥ 10 µM | 0.234 |
| chain 1 M34N N35V | ≥ 10 µM | 0.505 |
| chain 1 G100F M105D | ≥ 10 µM | 0.573 |
| chain 1 M105K G109W | ≥ 10 µM | 0.118 |

| Variant | Kd [1] | yeast surface expression [2] |
| --- | --- | --- |
| chain 1 Y32R M34W V37M | ≥ 10 µM | 0.728 |
| chain 1 F29N N35A | ≥ 10 µM | 0.862 |
| chain 1 Y107I W108R | ≥ 10 µM | 0.466 |
| chain 1 M105G D106R | ≥ 10 µM | 0.434 |
| chain 1 Y102M Y103E | ≥ 10 µM | 1.26 |
| chain 1 Y32M W36D | ≥ 10 µM | 0.63 |
| chain 1 G100N D106I | ≥ 10 µM | 0.203 |
| chain 1 Y107D W108N | ≥ 10 µM | 0.477 |
| chain 1 G104I Y107N | ≥ 10 µM | 0.247 |
| chain 1 T28V Y32S V37F | ≥ 10 µM | 0.818 |
| chain 1 F29N S30H | ≥ 10 µM | 0.954 |
| chain 1 W33C M34G N35E | ≥ 10 µM | 1.65 |
| chain 1 F29A W36H | ≥ 10 µM | 0.912 |
| chain 1 D31K W33R V37C | ≥ 10 µM | 0.501 |
| chain 1 D106L G109S | ≥ 10 µM | 0.464 |
| chain 1 G104K G109C | ≥ 10 µM | 0.195 |
| chain 1 F29I N35R | ≥ 10 µM | 0.852 |
| chain 1 G100Y Y107W | ≥ 10 µM | 0.468 |
| chain 1 G100Y Y107T | ≥ 10 µM | 0.388 |
| chain 1 Y32T | ≥ 10 µM | 1.04 |
| chain 1 G100Q Y103R D106L | ≥ 10 µM | 0.235 |
| chain 1 G100N G104W | ≥ 10 µM | 0.281 |
| chain 1 G100N G104Y | ≥ 10 µM | 0.185 |
| chain 1 Y107L G109R | ≥ 10 µM | 0.343 |

Further lines, with some results ahead:

| Kd [1] | Variant | yeast surface expression [2] |
| --- | --- | --- |
| ≥ 10 µM | chain 1 Y32A M34E V37C | 0.299 |
| 0.0015 µM | chain 1 S30H M34F | 0.945 |
| ≥ 10 µM | chain 1 G100M Y102V | 0.856 |
| ≥ 10 µM | chain 1 F29V N35D | 0.862 |
| ≥ 10 µM | chain 1 G109H | 0.268 |
| ≥ 10 µM | chain 1 G109C | 0.39 |
| ≥ 10 µM | chain 1 G109V | 0.34 |
| ≥ 10 µM | chain 1 F29S W33H | 0.724 |
| ≥ 10 µM | chain 1 F29S W33C | 0.865 |
| 0.00239 µM | chain 1 F29Q V37M | 1.09 |
| 0.0562 µM | chain 1 F29W | 0.661 |
| 0.00967 µM | chain 1 F29V | 0.929 |
| 0.195 µM | chain 1 F29C | 0.885 |
| 0.345 µM | chain 1 W33K V37L | 0.761 |
| 2.47 µM | chain 1 Y102C G109A | 0.619 |
| 0.000454 µM | chain 1 S30T V37C | 0.826 |
| 2.34 µM | chain 1 S30H W36M | 0.564 |
| 0.105 µM | chain 1 M105I Y107W | 0.669 |
| 0.0171 µM | chain 1 Y103E W108T | 1.01 |
| 0.00131 µM | chain 1 D106N | 0.681 |

| Kd [1] | Variant | yeast surface expression [2] |
| --- | --- | --- |
| 2.96 µM | chain 1 D106A | 0.694 |
| 0.0158 µM | chain 1 Y103V | 0.701 |
| 0.676 µM | chain 1 D31V M34E | 2.76 |
| 0.00638 µM | chain 1 S30L | 0.801 |
| 0.0302 µM | chain 1 D31G Y32L | 0.645 |
| 0.00334 µM | chain 1 D31Y | 0.729 |
| 0.00827 µM | chain 1 S30R D31R | 0.684 |
| 6.96 µM | chain 1 Y102K Y107K | 0.846 |
| 0.00708 µM | chain 1 F29Y Y32A | 1.02 |
| 0.00785 µM | chain 1 Y102T Y103W | 0.819 |
| 0.0245 µM | chain 1 Y102T Y103C | 0.784 |
| 0.0335 µM | chain 1 Y102Q | 1.12 |
| 0.0252 µM | chain 1 Y102R | 1.06 |
| 4.6 µM | chain 1 Y102M | 0.944 |
| 0.0171 µM | chain 1 Y103F W108K | 0.318 |
| 0.0245 µM | chain 1 G100A M105Q | 1.15 |
| 0.403 µM | chain 1 T28M M34N | 0.566 |
| 0.0391 µM | chain 1 F29N S30E | 1.07 |
| 0.327 µM | chain 1 F29S N35Y | 1.05 |
| 0.000604 µM | chain 1 Y102D W108M | 0.926 |
